Patent US20090304746A1
Where two headings read alike, the source gives them in different places.

Columns and labels:
HLA-A*1101 (human) [1] = target: HLA-A*1101 (human)
HLA-A*0301 (human) [2] = experiment: competition with 125I-labeled standard peptide on purified HLA, gel filtration
HLA-A*1101 (human) [3] = experiment: as above
HLA-A*3101 (human) [4] = experiment: as above
HLA-A*3301 (human) [5] = experiment: as above
HLA-A*6801 (human) [6] = experiment: as above
HLA-A*3301 (human) [7] = target: HLA-A*3301 (human)
HLA-A*0301 (human) [8] = experiment: competition with 125I-labelled standard peptide on purified HLA, gel filtration
HLA-A*3101 (human) [9] = experiment: as above
HLA-A*6801 (human) [10] = experiment: as above
HLA-A*2401 (human) = experiment: competition with 125I-labelled standard peptide for purified HLA, gel filtration

B1: … (peptide)
peptide: LSNSLLRHH
modifications: not checked
- binding affinity ratio (IC50 of standard peptide / IC50 of test peptide) (HLA-A*1101 (human) [1]): 0.0001

B2: HCV peptide … (HCV polyprotein position 1592) (peptide)
peptide: VAYQATVCAR
modifications: not checked
- binding affinity ratio (IC50 of standard peptide / IC50 of test peptide) (HLA-A*0301 (human) [2]): 0.0005
- binding affinity ratio (IC50 of standard peptide / IC50 of test peptide) (HLA-A*1101 (human) [3]): 0.0036
- binding affinity ratio (IC50 of standard peptide / IC50 of test peptide) (HLA-A*3101 (human) [4]): 0.068
- binding affinity ratio (IC50 of standard peptide / IC50 of test peptide) (HLA-A*3301 (human) [5]): 0.072
- binding affinity ratio (IC50 of standard peptide / IC50 of test peptide) (HLA-A*6801 (human) [6]): 0.028

B3: HCV peptide … (polyprotein position 1236) (peptide)
peptide: PTGSGKSTK
modifications: not checked
- binding affinity ratio (IC50 of standard peptide / IC50 of test peptide) (HLA-A*3301 (human) [7]): 0.0006
- binding affinity ratio (IC50 of standard peptide / IC50 of test peptide) (HLA-A*0301 (human) [8]): 0.0002
- binding affinity ratio (IC50 of standard peptide / IC50 of test peptide) (HLA-A*3101 (human) [9]): 0.0008
- binding affinity ratio (IC50 of standard peptide / IC50 of test peptide) (HLA-A*6801 (human) [10]): 0.0002

B4: … (peptide)
peptide: NIVDVQYLY
modifications: not checked
- binding affinity ratio (IC50 of standard peptide / IC50 of test peptide) (HLA-A*2401 (human)): 0.0001
